From patent US20210246218A1 (LYVGEN BIOPHARMA SUZHOU, published 2021)

Key:
[1] = target: T1, recombinant cynomolgus monkey CD137 receptor protein (cynomolgus monkey, UniProt A9YYE7 24-186); assay: ELISA, recombinant cynomolgus CD137 protein coated, antibody titrated
T1 construct: Coated on ELISA plates; also called Cyno CD137
Procedure: The human or cynomolgus monkey CD137 receptor protein was diluted in DPBS to 1 μg/mL, and then coated onto an ELISA plate (Corning, Catalog number: 9018, high binding) with a volume of 100 μL (0.1 μg) or 50 μL (0.05 μg) per well, and incubated at 4° C. overnight. The plate was decanted and washed once; assay diluent was added 200 μL/well. After a one-hour incubation at room temperature, the plate was washed with PBST one time. […] The plate was incubated one hour at room temperature and then washed three times with PBST. Goat anti-human IgG-H+L HRP conjugated at 1:100,000 dilution was added to the plate at 100 μL/well. The plate was then incubated one hour at room temperature followed by washing with PBST four times. The TMB substrate solution was added at 100 μL/well. The color was allowed to develop for 15 minutes, and was stopped with 100 μL/well 2N H₂SO₄. Absorbance at 450 nm and 620 nm was determined by a Tecan F200 Pro reader.
Graphpad 7.0, “[Agonist] vs. response—Variable slope (four parameters)” was used to plot the binding data and calculate binding EC₅₀ values.

[2] = target: T2, recombinant human CD137 receptor protein (human, UniProt Q07011 24-186); assay: ELISA, clone 3712-IgG1v coated, huCD137 titrated (EC50 is a concentration of the CD137 protein); full sigmoid, plateau about 1.9
T2 construct: Coated on ELISA plates; also called recombinant human CD137 protein

[3] = target: T2, recombinant human CD137 receptor protein; assay: ELISA, clone 3712-IgG1v coated, huCD137 titrated (EC50 is a concentration of the CD137 protein); full sigmoid, plateau about 2.2
CD137 protein = target: T3, CD137 protein (UniProt Q07011 24-186, limits assumed); assay: competition ELISA with CD137L: CD137 receptor coated, antibody titrated, CD137L added; A450-A620 falls from about 1.25 to about 0.64 (midpoint of an inhibition curve, called EC50 in the sheet's table)
T3 construct: also called CD137 antigen; CD137 receptor
Procedure: CD137 receptor was diluted in DPBS to 1 μg/mL, and then coated onto an ELISA plate (Corning, Catalog number: 9018, high binding) with a volume of 50 μL (0.05 μg) per well, and incubated at 4° C. overnight. The plate was decanted and washed once; assay diluent was added 200 μL/well. […] The diluted CD137 receptor was added to the assay plate, 50 μL/well, in duplicate. The plate was incubated one hour at room temperature. […] The plate was incubated one hour at room temperature and then washed three times with PBST. Goat anti-human IgG-H+L HRP conjugated at 1:100,000 20 dilution was added to the plate at 100 μL/well. The plate was then incubated one hour at room temperature followed by washing with PBST four times. The TMB substrate solution was added at 100 μL/well. The color was allowed to develop for 15 minutes, and was stopped with 100 μL/well 2N H2SO4. Absorbance at 450 nm and 620 nm was determined by a Tecan F200 Pro reader.

[4] = target: T4, cynomolgus monkey CD137 on cells (cynomolgus monkey, UniProt A9YYE7 24-254); assay: flow cytometry, cellular CD137; cynomolgus monkey CD137
T4 construct: whole, on cells; also called CHO-cynomolgus monkey CD137
Procedure: CHO cells over-expressing human or cynomolgus monkey CD137 and CHO parental cells were harvested by centrifugation at 1000 g for 3 minutes. The cells were resuspended in ice cold assay buffer at 2*10\hat{ }6/mL and transferred to 96-well V-bottom plate with 100 μL/well. […] The plate was mixed and incubated in the dark for 2 hours at 4° C. The cells were washed 3 times by centrifugation at 1000 g for 3 min and resuspended in ice cold assay buffer containing goat F(ab′)₂ anti-human IgG-Fc (PE), 100 μL/well. The plate was incubated in the dark for another 1 hour at 4° C. The cells were washed 2 times by centrifugation at 1000 g for 3 min and resuspended in ice cold assay buffer containing 2% PFA. The cells were then subjected to the flow cytometer immediately.
Mean fluorescence intensity (MFI) was calculated from the total cell population in the FCM experiments. Graphpad 7.0, “[Agonist] vs. response—Variable slope (four parameters)” was used to plot the binding MFI in dose response and to calculate FCM binding EC₅₀ values.

[5] = target: T5, human FcγRIIIA-Phe158 on CHO-K1 cells (human, UniProt P08637 17-254); assay: flow cytometry on CHO-huFcγRIIIA cells, PE anti-human Fc F(ab')2
T5 construct: whole, on cells; also called CHO-K1-huFcγRIIIA-Phe158; CHO-huFcγIIIA
Procedure: The plate was mixed and incubated in the dark for 2 hours at 4° C.

Ly110 = target: T6, Ly110; assay: ELISA, clone 3712-IgG1v coated, CD137 protein titrated (EC50 is a concentration of the CD137 protein); full sigmoid, plateau about 1.9
T6 chain: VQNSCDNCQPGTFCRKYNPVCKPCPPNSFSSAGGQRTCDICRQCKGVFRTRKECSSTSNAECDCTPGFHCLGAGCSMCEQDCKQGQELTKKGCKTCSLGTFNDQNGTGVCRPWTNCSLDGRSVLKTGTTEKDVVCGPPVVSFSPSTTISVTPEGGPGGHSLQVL
Procedure: The plate was decanted and washed once; assay diluent was added 200 μL/well. After one-hour incubation at room temperature, the plate was washed with PBST one time. CD137 receptor human/mouse chimeras were diluted in assay diluent to 100 or 10 μg/mL, and then a 4-fold serial dilution in assay diluent for 11 points to final concentrations of 100000, 25000, 6250, 1562.5, 390.63, 97.66, 24.41, 6.10, 1.53, 0.38 and 0.095 ng/mL or 10000, 2500, 625, 156.25, 39.06, 9.77, 2.44, 0.61, 0.15, 0.038 and 0.0095 ng/mL. The diluted CD137 receptor was added to the assay plate, 50 μL/well, in duplicate. The plate was incubated one hour at room temperature and then washed three times with PBST. Goat anti-human IgG-H+L HRP conjugated at 1:100,000 20 dilution was added to the plate at 100 μL/well. The plate was then incubated one hour at room temperature followed by washing with PBST four times. The TMB substrate solution was added at 100 μL/well. The color was allowed to develop for 15 minutes, and was stopped with 100 μL/well 2N H2SO4. Absorbance at 450 nm and 620 nm was determined by a Tecan F200 Pro reader.

B1: Clone 3712-IgG1v (IgG1v/kappa) (antibody)
heavy: QVQLVQSGAEVKKPGASVKVSCKASGYTFAGFEMHWVRQAPGQGLEWMGAIDPKTGGTDYNQKFKDRVTMTRDTSISTAYMELSRLRSDDTAVYYCARDLGYFDVWGQGTLVTVSSASTKGPSVFPLAPSSKSTSGGTAALGCLVKDYFPEPVTVSWNSGALTSGVHTFPAVLQSSGLYSLSSVVTVPSSSLGTQTYICNVNHKPSNTKVDKKVEPKSCDKTHTCPPCPAPELLGPSVFLFPPKPKDTLMISRTPEVTCVVVDVEHEDPEVKFNWYVDGVEVHNAKTKPREEQYNSTYRVVSVLTVLHQDWLNGKEYKCKVSNKALPAPIEKTISKAKGQPREPQVYTLPPSREEMTKNQVSLTCLVKGFYPSDIAVEWESNGQPENNYKTTPPVLDSDGSFFLYSKLTVDKSRWQQGNVFSCSVMHEALHNHYTQKSLSLSPGK
light: DIQMTQSPSSLSASVGDRVTITCRASQDIRSNLNWYQQKPGGAVKLLIYYTSRLHSGVPSRFSGSGSGTDYTLTISSLQPEDFATYFCQQSEKLPRTFGGGTKVEIRRTVAAPSVFIFPPSDEQLKSGTASVVCLLNNFYPREAKVQWKVDNALQSGNSQESVTEQDSKDSTYSLSSTLTLSKADYEKHKVYACEVTHQGLSSPVTKSFNRGEC
notes: copies: 2 + 2
- EC50 (read off the curve) [1]: ~0.05 µg/mL
- EC50 [2]: 0.0562 µg/mL
- EC50 [3]: 0.0669 µg/mL
- IC50 (CD137 protein): 0.0643 µg/mL
- EC50 [4]: ~300 pM
- binding result [5]: no binding (tested: 100 µg/mL)
- EC50 (Ly110): 0.101 µg/mL
